From US8529881B2, “Peptides for active anti-cytokine immunization” (Vaxconsulting, priority 2002, dated 2013)
Several values for one entry are separate records, joined by “and”; a condition that tells them apart may be missing. Equal entries are not always repeated. Positions of bridges follow the written chain, without caps; N, C: chain ends. No end group written: not given here.

Legend:
[1] = biological target: human IL10 (native cytokine) (Homo sapiens, UniProt P22301); experiment: ELISA of serum from immunized mice with native IL10; format: in vivo; conditions: serum day 60
[2] = biological target: T1, human TGFβ2 (native cytokine) (Homo sapiens, UniProt P61812); experiment: ELISA of serum from immunized mice with native TGFβ2; format: in vivo; conditions: serum day 60
T1 sequence (P61812 303-414 limits assumed): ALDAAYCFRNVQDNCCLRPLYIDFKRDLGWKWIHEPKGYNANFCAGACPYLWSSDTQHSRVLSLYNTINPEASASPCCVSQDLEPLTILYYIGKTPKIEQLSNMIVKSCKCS

[3] = biological target: human IL12p40 (native cytokine) (Homo sapiens, UniProt P29460); conditions: in vivo
[4] = biological target: T2, human IP10 (native cytokine) (Homo sapiens, UniProt P02778); experiment: ELISA of serum from immunized mice with native IP10; format: in vivo; conditions: serum day 60
T2 sequence (P02778 22-98): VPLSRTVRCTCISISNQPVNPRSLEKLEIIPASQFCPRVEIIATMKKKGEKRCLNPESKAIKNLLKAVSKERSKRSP

IFNγ (native cytokine) = format: cell-based, human
[5] = biological target: human IFNγ (native cytokine) (Homo sapiens, UniProt P01579); conditions: in vivo
[6] = biological target: T3, human IL5 (native cytokine) (Homo sapiens, UniProt P05113); experiment: ELISA of serum from immunized mice with native IL5; format: in vivo; conditions: serum day 60
T3 sequence (P05113 20-134): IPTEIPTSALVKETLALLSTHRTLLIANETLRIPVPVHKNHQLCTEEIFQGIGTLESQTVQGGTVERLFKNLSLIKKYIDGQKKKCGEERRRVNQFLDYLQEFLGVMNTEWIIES

[7] = test system: human vEGF (native cytokine); experiment: ELISA of serum from immunized mice with native vEGF; format: in vivo; conditions: serum day 60
[8] = biological target: T4, human IL4 (native cytokine) (Homo sapiens, UniProt P05112); experiment: ELISA of serum from immunized mice with native IL4; format: in vivo; conditions: serum day 60
T4 sequence (P05112 25-153): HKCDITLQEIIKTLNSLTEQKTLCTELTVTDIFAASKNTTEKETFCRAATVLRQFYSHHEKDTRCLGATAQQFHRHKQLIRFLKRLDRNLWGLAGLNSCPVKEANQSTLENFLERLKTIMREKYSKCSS

[9] = biological target: T5, human IL18 (native cytokine) (Homo sapiens, UniProt Q14116); experiment: ELISA of serum from immunized mice with native IL18; format: in vivo; conditions: serum day 60
T5 sequence (Q14116 37-193): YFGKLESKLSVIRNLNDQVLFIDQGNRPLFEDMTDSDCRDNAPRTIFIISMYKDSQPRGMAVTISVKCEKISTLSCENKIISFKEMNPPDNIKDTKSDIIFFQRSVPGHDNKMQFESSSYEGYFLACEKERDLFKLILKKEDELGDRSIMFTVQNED

native TNFα cytokine = native TNFα cytokine (Homo sapiens, UniProt P01375); experiment: Neutralization of native TNFα by mouse serum, lysis of L929 cells; format: cell-based; conditions: for percentage inhibition of the lysis (neutralization of the TNFα): 50 units TNFα, 24 hours
Description: The existence of antibodies neutralizing the native cytokine was evaluated as follows: 50 units of native TNFα cytokine are preincubated with serum from mice (immunized or control) diluted 1/200th over 2 hours at 37° C. The whole is then added to L929 cells, with 25,000 cells per microwell. The lysis of the cells is evaluated after 24 hours by staining with naphthol blue black (Sigma).

[10] = biological target: human TNFα (native cytokine) (Homo sapiens, UniProt P01375); experiment: ELISA of serum from immunized mice with native TNFα; format: in vivo; conditions: serum day 60
human TNFα (native cytokine), sequence (P01375 77-233 limits assumed): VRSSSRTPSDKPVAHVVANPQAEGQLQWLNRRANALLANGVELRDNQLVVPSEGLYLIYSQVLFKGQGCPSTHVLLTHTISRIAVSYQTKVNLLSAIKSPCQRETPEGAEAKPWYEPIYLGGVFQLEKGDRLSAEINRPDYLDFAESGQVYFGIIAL

human IFNγ (native cytokine), sequence (P01579 24-161): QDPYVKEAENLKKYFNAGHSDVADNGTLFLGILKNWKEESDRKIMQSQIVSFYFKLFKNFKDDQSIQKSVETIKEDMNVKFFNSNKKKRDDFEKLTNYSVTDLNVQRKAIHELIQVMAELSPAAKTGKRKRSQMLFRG
native TNFα cytokine, sequence (P01375 77-233 limits assumed): as the sequence (P01375 77-233 limits assumed) above
human IL12p40 (native cytokine), sequence (P29460 23-328): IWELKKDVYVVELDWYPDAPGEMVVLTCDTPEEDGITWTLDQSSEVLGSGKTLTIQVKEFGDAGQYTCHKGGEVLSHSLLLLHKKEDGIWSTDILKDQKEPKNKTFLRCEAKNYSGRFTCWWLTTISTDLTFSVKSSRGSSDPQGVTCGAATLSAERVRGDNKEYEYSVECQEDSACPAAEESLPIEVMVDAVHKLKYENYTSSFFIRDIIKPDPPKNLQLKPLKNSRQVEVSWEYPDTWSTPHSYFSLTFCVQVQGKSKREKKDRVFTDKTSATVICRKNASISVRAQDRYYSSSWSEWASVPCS
human IL10 (native cytokine), sequence (P22301 19-178): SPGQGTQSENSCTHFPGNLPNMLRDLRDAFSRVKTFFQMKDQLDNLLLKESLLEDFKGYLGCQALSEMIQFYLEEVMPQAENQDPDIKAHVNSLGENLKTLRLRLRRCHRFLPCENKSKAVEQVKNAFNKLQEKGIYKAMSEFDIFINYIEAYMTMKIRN

DECNMLRDLRDAFSRVKTFFQMKDQLDNC (disulfide 3-29 (inferred); also: KLH conjugate; listed as Homo sapiens) [Example 5, cyclic peptide originating from human IL10 coupled with KLH]
average absorbance, ELISA native IL10 ([1]; Average of 5 mice): 1.44
average absorbance, ELISA native IL10 ([1]; Mouse 1): 1.94
average absorbance, ELISA native IL10 ([1]; Mouse 2): 0.96
average absorbance, ELISA native IL10 ([1]; Mouse 3): 1.85
average absorbance, ELISA native IL10 ([1]; Mouse 4): 0.97
average absorbance, ELISA native IL10 ([1]; Mouse 5): 1.5

DTILYYIGKTPKIE (also: KLH conjugate via carbodiimide; listed as Homo sapiens) [Example 11, peptide corresponding to human TGFβ2, D added, coupled with KLH]
average absorbance, ELISA native TGFβ2 ([2]; Average of 5 mice): 1.07
average absorbance, ELISA native TGFβ2 ([2]; Mouse 1): 0.95
average absorbance, ELISA native TGFβ2 ([2]; Mouse 2): 1.15
average absorbance, ELISA native TGFβ2 ([2]; Mouse 3): 0.99
average absorbance, ELISA native TGFβ2 ([2]; Mouse 4): 1.17
average absorbance, ELISA native TGFβ2 ([2]; Mouse 5): 1.08

KKEDGIWSTDILKDQKEPKNKTFLRCE [Example 7]
average absorbance, ELISA native IL12p40 [3]: 0.95 and 1.06 and 1.58 and 1.14 and 0.87 and 1.12

KKKGEKRCLNPESKA [Example 9]
average absorbance, ELISA native IP10 ([4]; Average of 5 mice): 1.07
average absorbance, ELISA native IP10 ([4]; Mouse 1): 1.16
average absorbance, ELISA native IP10 ([4]; Mouse 2): 0.98
average absorbance, ELISA native IP10 ([4]; Mouse 3): 1.24
average absorbance, ELISA native IP10 ([4]; Mouse 4): 1.09
average absorbance, ELISA native IP10 ([4]; Mouse 5): 0.88

KKYFNAGHSDVADNGTLFLGILKN [Example 4]
neutralization of the IFNγ, result in words (IFNγ (native cytokine)): inhibitions are observed for the immunized mice
average absorbance, ELISA native IFNγ [5]: 1.56 and 1.05 and 0.98 and 1.80 and 1.64 and 1.41

KLQEFLGVMNTEWI (also: KLH conjugate via glutaraldehyde; listed as Homo sapiens) [Example 10, peptide corresponding to human IL5, K added, coupled with KLH]
average absorbance, ELISA native IL5 ([6]; Average of 5 mice): 1.26
average absorbance, ELISA native IL5 ([6]; Mouse 1): 1.25
average absorbance, ELISA native IL5 ([6]; Mouse 2): 1.21
average absorbance, ELISA native IL5 ([6]; Mouse 3): 1.87
average absorbance, ELISA native IL5 ([6]; Mouse 4): 1.10
average absorbance, ELISA native IL5 ([6]; Mouse 5): 0.88

KPHQGQHIGEMS (also: KLH conjugate via glutaraldehyde; listed as Homo sapiens) [Example 2, synthetic peptide originating from human vEGF coupled to KLH]
average absorbance, ELISA native vEGF ([7]; Average of 5 mice): 1.19
average absorbance, ELISA native vEGF ([7]; Mouse 1): 1.50
average absorbance, ELISA native vEGF ([7]; Mouse 2): 1.00
average absorbance, ELISA native vEGF ([7]; Mouse 3): 0.86
average absorbance, ELISA native vEGF ([7]; Mouse 4): 0.98
average absorbance, ELISA native vEGF ([7]; Mouse 5): 1.63

KQLIRFLKRLDRNLWGLAG (also: KLH conjugate via glutaraldehyde; listed as Homo sapiens) [Example 6, peptide corresponding to human IL4 coupled with KLH]
average absorbance, ELISA native IL4 ([8]; Average of 5 mice): 1.07
average absorbance, ELISA native IL4 ([8]; Mouse 1): 1.06
average absorbance, ELISA native IL4 ([8]; Mouse 2): 1.25
average absorbance, ELISA native IL4 ([8]; Mouse 3): 0.95
average absorbance, ELISA native IL4 ([8]; Mouse 4): 0.87
average absorbance, ELISA native IL4 ([8]; Mouse 5): 1.24

KYFGKLESKLSVIRNLNDQVLFID (also: KLH conjugate via glutaraldehyde; listed as Homo sapiens) [Example 8, peptide originating from human IL18, K added, coupled with KLH]
average absorbance, ELISA native IL18 ([9]; Average of 5 mice): 1.35
average absorbance, ELISA native IL18 ([9]; Mouse 1): 1.85
average absorbance, ELISA native IL18 ([9]; Mouse 2): 1.13
average absorbance, ELISA native IL18 ([9]; Mouse 3): 0.99
average absorbance, ELISA native IL18 ([9]; Mouse 4): 1.24
average absorbance, ELISA native IL18 ([9]; Mouse 5): 1.54

KYQAEGQLQWLNRRANALLANGVELRDNQL (also: KLH conjugate via diazobenzidine; listed as Homo sapiens) [Example 3, synthetic peptide originating from human TNFα, K and Y added, coupled to KLH]
percentage inhibition of the lysis (neutralization of the TNFα) (native TNFα cytokine; Average of 5 mice, serum diluted 1/200th): 61%
percentage inhibition of the lysis (neutralization of the TNFα) (native TNFα cytokine; Mouse 1, serum diluted 1/200th): 88%
percentage inhibition of the lysis (neutralization of the TNFα) (native TNFα cytokine; Mouse 2, serum diluted 1/200th): 12%
percentage inhibition of the lysis (neutralization of the TNFα) (native TNFα cytokine; Mouse 3, serum diluted 1/200th): 93%
percentage inhibition of the lysis (neutralization of the TNFα) (native TNFα cytokine; Mouse 4, serum diluted 1/200th): 36%
percentage inhibition of the lysis (neutralization of the TNFα) (native TNFα cytokine; Mouse 5, serum diluted 1/200th): 79%
neutralization of the TNFα, result in words (native TNFα cytokine; serum of immunized mice vs controls): responses are observed for the immunized mice
average absorbance, ELISA native TNFα ([10]; Average of 5 mice): 1.31
average absorbance, ELISA native TNFα ([10]; Mouse 1): 1.64
average absorbance, ELISA native TNFα ([10]; Mouse 2): 1.14
average absorbance, ELISA native TNFα ([10]; Mouse 3): 1.96
average absorbance, ELISA native TNFα ([10]; Mouse 4): 1.02
average absorbance, ELISA native TNFα ([10]; Mouse 5): 0.78
